# T1: …3 (SEP3) fused to mVenus, expressed in N. benthamiana (Arabidopsis thaliana), O22456
# T1 chain: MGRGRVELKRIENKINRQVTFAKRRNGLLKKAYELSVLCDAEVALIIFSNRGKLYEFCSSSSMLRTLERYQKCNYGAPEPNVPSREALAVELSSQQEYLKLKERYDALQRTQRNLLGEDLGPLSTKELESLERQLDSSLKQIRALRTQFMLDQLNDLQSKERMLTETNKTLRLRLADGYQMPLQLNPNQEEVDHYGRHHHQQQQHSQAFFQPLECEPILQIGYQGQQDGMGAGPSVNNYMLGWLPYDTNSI
# Target: T1, …3 (SEP3) fused to mVenus, expressed in …
# Test: FRET or BRET; FLIM-FRET with one pattern analysis (OPA) in nuclei of transiently expressing N. benthamiana leaf epidermis cells; donor mVenus fusion, acceptor mCherry fusion; BINDING = relative amplitude of the FRET fraction; nucleoli excluded; FRET efficiency only for nuclei with BINDING above 10%
# Conditions: remark: other sources report otherwise
binder,measurement,value
"…3 (SEP3) fused to mVenus, expressed in N. benthamiana, O22456 1-251 (natural protein) MGRGRVELKRIENKINRQVTFAKRRNGLLKKAYELSVLCDAEVALIIFSNRGKLYEFCSSSSMLRTLERYQKCNYGAPEPNVPSREALAVELSSQQEYLKLKERYDALQRTQRNLLGEDLGPLSTKELESLERQLDSSLKQIRALRTQFMLDQLNDLQSKERMLTETNKTLRLRLADGYQMPLQLNPNQEEVDHYGRHHHQQQQHSQAFFQPLECEPILQIGYQGQQDGMGAGPSVNNYMLGWLPYDTNSI",BINDING,28.1%
same,FRET efficiency,38.5%
